Experimental data taken from patent US20160311918A1, “Anti-Ron Monoclonal Antibodies as a Cytotoxic Drug Delivery System for Targeted Cancer Therapy” (TEXAS TECH UNIVERSITY SYSTEM, priority 2013, published 2016).

Experiments:
[1] = biological target: T1, RON on HCT116, HT29, and SW620 cells (Homo sapiens, UniProt Q04912); assay: Flow cytometric binding to CRC cell lines; conditions: all three CRC cell lines, flow cytometry
T1 construct: We selected CRC cell lines LoVo, DLD1, HT29, HCT116, and SW620 expressing variable levels of RON as the cellular model; host or cells: HCT116, HT29, SW620
Protocol: FIG. 2B: Binding of Zt/g4-DM1 to human CRC cell lines: HCT116, HT29, and SW620 cells (1×10^5 cells) were incubated with 5 μg Zt/g4-DM1 or Zt/c1-DM1. Free Zt/g4 and Zt/c1 was used as the control. Fluorescence intensity from individual samples was determined by flow cytometric analysis.
The binding capacity of Zt/g4-DM1 to RON was determined by flow cytometric analysis.

[2] = In vivo toxicity in athymic nude mice; design: species or system mouse
Protocol: FIGS. 6A to 6C show the toxicity of Zt/g4-DM1 in vivo. Body weight was measured every four days during the period of Zt/g4-DM1 treatment. FIG. 6A: Effect of multiple doses of Zt/g4-DM1 on mouse body weight was determined by administration of Zt/g4-DM1 at 1, 3, 7, 10, 15 mg/kg every four day with a total of 5 injections. Mice were weighed and monitored for a total of 31 days. FIG. 6B: Effect of a single dose of Zt/g4 at 20 mg/kg on mouse body weight was determined using mice bearing HT29, HCT116, or SW620-derived tumors. Body weight was monitored up to 28 days. FIG. 6C: Effect of high doses of Zt/G4-DM1 on mouse body weight was analyzed by tail vein injection at 20, 40 and 60 mg/kg to Balb/c mice. Mice were euthanized at day 21. In all cases, the average body weight of mice before Zt/g4-DM1 injection was 19.8±3.6 grams (5 mice per group) and set as 100%;
In vivo toxicity studies: Acute toxicity with maximum tolerated dose was determined in Balb/C mice (four mice per dose) by a single tail vein injection of Zt/g4-DM1 at 20, 40, and 60 mg/kg body weight. Toxicity associated with different therapeutic doses was evaluated in athymic nude mice bearing HT29 tumor xenograft (five mice per dose). […] Toxicity was assessed by observing mouse behavior, weight loss, and survival.
Toxic effect of Zt/g4-DM1 on mice. Three studies using two different types of mice were performed to study Zt/g4-DM1 on animal behavior and body weight. The first study addressed the impact of multi-doses of Zt/g4-DM1. Athymic nude mice were injected five times with 1, 3, 5, 7, 10, 15 mg/kg of Zt/g4-DM1 and monitored every four days for a total period of 31 days. […] The second study observed the effect of a single dose of Zt/g4-DM1 at 20 mg/kg in nude mice bearing tumors derived from HT29, HCT116, and SW620 cells. […] The third study involved a single-dose injection of Zt/g4-DM1 at 20, 40, and 60 mg/kg in Balb/c mice monitored for 24 days (FIG. 6C). […] Also, a moderate reduction of about 6% body weight was observed within the first four days after 60 mg/kg Zt/g4-DM1 injection. […]

[3] = test system: human pancreatic cancer cells; assay: PDAC cell viability in combination with chemotherapeutics; assay type: cell-based; conditions: in vitro, chemotherapeutics including gemcitabine
Protocol: In vitro cell viability and death assays: Cell viability after treatment of Zt/g4-DM1, chemotherapeutics, and their combinations was determined by the MTT assay. Cell death was determined by the trypan blue exclusion assay.
FIGS. 10A to 10D are graphs that show the effect of Zt/g4-DM1 on pancreatic cancer cell cycle, viability, and apoptotic death. […] FIG. 12 are graphs that show synergism between Zt/g4-DM1 and chemotherapeutics by isobolograms.

[4] = test system: HCT116-luc2 xenograft tumor; assay: HCT116-luc2 mouse xenograft tumor model; assay type: in vivo; conditions: single dose 20 mg/kg
Protocol: Athymic nude mice (five mice per group) were subcutaneously inoculated with 5×10^6 HCT116, HT29, and SW620 cells followed by injection of 20 mg/kg Zt/g4-DM1 through tail vein. FIG. 4A: Tumor growth from HT29-luc2 or HCT116-luc2 cells was determined by measuring average photon intensity (left panel). SW620-derived tumor growth was monitored by measuring tumor volume (FIG. 4B) (right panel). FIG. 4C: Tumor images with photon emission or caliper measurement at day 16 are presented. The scale from minimal to maximal is set at 300 to 35,000 photons per second. The percentages of inhibition were calculated from the average photon emission (for HT29 and HCT116 cells) or tumor volume (for SW620 cells). […] The percentages of inhibition were calculated by a formula: (average tumor weight from Zt/g4-DM1 treated group/average tumor weight from control mice)×100%;
Mouse xenograft CRC model and anti-RON ADC treatment: All mice studies were approved by the institutional animal care committee. […] Bioluminescence from individual tumors was measured every four days using Caliper IVIS image system (PerkinElmer). Tumor volumes from SW620-derived tumors were measured according to a formula: V=pi/6×1.58×(length×width)^3/2 (18,33). […]
The inventors first determined the efficacy of a single dose of Zt/g4-DM1 at 20 mg/kg body weight on tumors derived from HCT116, HT29, and SW620 cells. […]

[5] = five injections of 1, 3, 5, 7, 10, 15 mg/kg, 31 days

B1: Zt/g4-DM1: anti-RON mouse mAb Zt/g4 conjugated to maytansinoid DM1 via non-reducible thioether linkage (SMCC), DAR about 4:1 (conjugate)
VH: EVQLQQSGAELVKPGASVKLSCTTSGFNIIDTYIHWVNQKPDQGLEWIGRIDPADGNRKSDPKFQVKATITVDTSSNTAYLQLSSLTSGDTAVYYCARGYGNLNAMDSWGQGTSVTVSS
VL: DIQMNQSPSSLSASLGDTITITCHASQNINVWLNWYQQKPGNIPKLLIYKASNLHTGVPSRFSGSGSGTGFTLTISSLQPEDIATYYCQQGQSYPLTFGGGTKLEIK
binding intensity compared with free Zt/g4 [1]: No difference in binding intensity | average body weight [2, 5]: comparable to that of control mice with no differences | mouse behavior [2, 5]: behaved normally | behavior and body weight ([2]; single dose 20 mg/kg, tumor-bearing nude mice): No changes in behavior or body weight were observed | combination effect with chemotherapeutics on PDAC cell viability [3]: synergistic effect | inhibition by average bioluminescence intensity ([4]; day 16): More than 95% | inhibition rate by average tumor weight ([4]; day 28): 58.0%
